Assay: soluble on expression in E. coli; label from the status in PepcDB or PDB records

Sequence	soluble on expression in E. coli
SLDDMTEFKNMPKVELHAHLSGSLSPETIKLIMESDETRAEEIMKKYKLEKPENMTGVFDCFPVIHAILRKPEAIRIAIRQTIKEFEEDNCVYLELRTSPKETDFMTYEDYLQVCIESFEAAKHEFPRIKTFLIVSLDRRMPFETAAHILGLIGEAQQRTNVIVGVELSGDPHLDGRRLLKLFVAARRFHGLGITIHLAEVLQNMADVEDYLNLRPDRIGHGTFLHTDPYTEYLTNKYKIPLEICLSSNVYSKTTTNYRNSHFNYWRKRGVPVFICTDDKGVIPGATLTEEYYKAAITFDLSTEELIGINQDALLNSFAYKYNVTDLTETFRKINNNVLD	soluble
MELRDRIDFLCKTILAIKTAGRLVLGIDGLSRSGKTTLANQLSQTLREQGISVCVFHMDDHIVERAKRYHTGNEEWFEYYYLQWDVEWLTHQLFRQLKASHQLTLPFYDHETDTHSKRTVYLSDSDMIMIEGVFLQRKEWRPFFDFVVYLDCPREIRFARENDQVKQNIQKFINRYWKAEDYYLETEEPIKRADVVFDMTS	soluble
MLGGKGRPSGVGGYRILVTTSRRPSPRIRSFVKDLSATIPGAFRFTRGHYSMEELAREAIIRGADRIVVVGERRGNPGIIRVYAVEGPERPDNIVSFIVKGVSLSRERRWGLPSLRGGEVLVARPLDSGVAVEFADAFVIAFHARLKPPEAAGYVEAVIESLDARTVAVTFRYGGAPVGPMLRLGKPAEMVKRGRRVAAALEHHHHHH	not soluble
MGHHHHHHSHMTSELDIFVGNTTLIDEDVYRLWLDGYSVTDAVALRVRSGILEQTGATAAVLQSDTMDHYRTFHMLERLLHAPPKLLHQLIFQIPPSRQALLIERYYAFDEAFVREVLGKKLSKGTKKDLDDISTKTGITLKSCRRQFDNFKRVFKVVEEMRGSLVDNIQQHFLLSDRLARDYAAIVFFANNRFETGKKKLQYLSFGDFAFCAELMIQNWTLGAVGEAPTDP	not soluble
MGSDKIHHHHHHAKKVKGNGDIITKEISVRDYSAIKVGSTAMGYSDSWFSLFSRGGNPSYVFGYTQGESASLRITIDENLYPYINVQVKNEELSISTENGTQLSPTRFKIEGTSKKLEKIKMSGCMDFVLRSALSGDDLEIIATRGSDVKMEQPINVSNCIIEATSGSDIIINDLTTRIIRGRASGGSDLKLTGKAENGEYSASGGSDIKAYDLILNQLECSASGGSDIYTHVTDYIKASASGGSDVHYKGSARSDTSTSGGSDIIKEGN	not soluble
MMKKALLIDDECWLRVQARDASADGRFVFAVRTTGVFCRPSCRSKRALRKNVRFFANAQQALDAGFRPCKRCQPDNARAQQRRLDKIACACRLLEQETPVTLAFLAQAVAMSPFHLHRLFKASTGMTPKGWQQAWRARRLREALAKGEPITAAIYRAGFPDSSSYYRHADQTLGMTAKQFRKGGDNVSVRYALTDWVYGRCLVAESERGICAILPGDSDDALLAELHTLFPSARHEPADALFQQRVRQVVAAINTRDVLLSLPLDIQGTAFQQQVWQALCAIPCGETVSYQQLAATIGKPTAVRAVASACGANKLAMVIPCHRVVRRDGALSGYRWGVRRKAQLLKREAQKEE	not soluble
EFGQNRATLLASIDVALEHAELFAADDDQMGLFLDESFSIKPKYVETEELPLVDLLAFEKETLGIYFSNHPLSAFRKQLTAQGAVSILQAQRAV	not soluble
MQFERISTEQKKLSLIQTFLHQNALKLDEQIEYFVVGYNDNEQIVVCGGLAGNIIKCVAIDESLRGSGVALQLITELVDLAYTLKRPHLFIYTKPEYATLFKSCGFYIISDANPYVVLLENSATRLQKQCSLWEKMRVDGNRIGSIVMNANPFTLGHRYLIEQALQQCDHLHLFIVGEDASQFSYTERFEMIQQGIFDLSNITLHSGSDYIISRATFPNYFLKDQLITDESYFEIDLKLFRLHIAQALGITHRFVGTELNCPVTAEYNRQMHYWLMDAEMNAPKINVIEIPRKTASNHIISASTVRKHLAEKNWAQLAEFVPMTTLNYLQKCGRF	soluble
TDNTKPNRMPVAPYWTSPEKMEKKLHAVPAAKTVKFKCPSSGTPQPTLRWLKNGKEFKPDHRIGGYKVRYATWSIIMDSVVPSDKGNYTCIVENEYGSINHTYQLDVVERSPHRPILQAGLPANKTVALGSNVEFMCKVYSDPQPHIQWLKHIEVNGSKIGPDNLPYVQILKTAGVNTTDKEMEVLHLRNVSFEDAGEYTCLAGNSIGLSHHSAWLTVLEALEER	soluble
MGSDKIHHHHHHMQSGMYVSLSSQRALDKRLTTIADNMANVNTVGFRGTEVKFDEVVSRTGNDQNAKIAFVSQGNDYLNTQSGEMLQTGGTLDFAVKGDAWFSIDTPAGPALTRDGRFTMTSTGQLVSVRGYSVLDAGGGPIQLDPNGGEPHVGADGTINQNGRQISQIGLFTADISKGYLRTENSGVITTDRPQAVVDDATIGVMQGYVEQSNVNGISQMTQLIQVSRAFESISASMSQTENSMSETIKTLGGSK	not soluble
MGSDKIHHHHHHMSSQNALYMLIDERLRRDELKLPGLPETAEQVRNAAMDPDCNLHDLCHIIQQDTALTARLIRLANSAYLGGRNKAESLMQALTRIGMRRIRTLALAMAMEQVFKPDNDIVQMFSQQFIVESREIAAAAVVITEDLQHRGIGHRLHQDVALLAGMVSRIGVAPILHMANEFEDSFANPSFIKECITQFSSTLGSNILSYWQFTPNLVQVPLCYYNGRMTLNDAITVNYCDIVHLAGLLTGNVKPNKDSVTLVEYQMLGVIKTDDFWQQESVQKSYRQMLDLLS	not soluble
MSALKWTNIGATSGAKSCQRWLFYAYDRIRRTVVPHVFGERTLATLERLLSLLSAFEVVVWMTDGWPLYESRLKGKLHVISKRYTQRIERHNLNLRQHLARLGRKLLSFSKSVELHDKVIGHYLNIKHYQLEHHHHHH	not soluble
EGLLNNHLDIPTATTQALTIQPSASYRINDHWSVGAALGIQYGMYEVETKGALNFNDEDQDTQLNGRVGVLYEATPGTRLGLSYSSETEFEFDNSNSIAPQQLIFSAYHEVNDDLAVMWNVNWQDWSEYTTTLKAADLVDVETQDTYQIALGTQYKLNEKMMWNAGFAFDTSMYESQSNGDITVPTGKAYRIGTGIDYKLDSENSIGFAFEAVLMESSETPRLQAGFDEPALYFMSMSYNWKN	not soluble
HERRTVLAEWSIGIDIGGTFTDLVALDYAGGKLHSLKMLTTYDDPSLAVMEGVRQLMATCGIAASEVGRVVHATTLFTNALISRAGARTGLLCNQGFMDAIEIGNERKYDLYDLAIDRPPPLVPRDLRREIPGRLDAHGNELEPLDRQAVVAMARSLADAGATSIAVCLLHAYASPRHEQQVHAWIRQAL	not soluble
MIVSMIAALANNRVIGLDNKMPWHLPAELQLFKRATLGKPIVMGRNTFESIGRPLPGRLNIVLSRQTDYQPEGVTVVATLEDAVVAAGDVEELMIIGGATIYNQCLAAADRLYLTHIELTTEGDTWFPDYEQYNWQEIEHESYAADDKNPHNYRFSLLERVK	soluble
MAHHHHHHMSLPIIRLRTVNSNHATAAYDPVTASCTLYGFLRSVPSRFECDMAMSDFKRGVQAAQGQKCLAKNNANMLNRVFSSVQDRLLRELPKIIPQLARNSSTWRRLLSGAESTSSMSSTPTATRLQDNARSLHNEESTQPSIPSTPLPSAGTGENGNKGNHKNGDHHSSAEEILVEETVSTTSTRFKSPYEQIPPPIHLTASEHKESRATGGMQGEAGERKDASTVVEHRGKGNNLPGKGYRPHPLLLAILERVRSSCSAEENESDREEREFTTIMESREKALRTKLSSAYSMIPPEEKNFKGFLREMEARVAVAQKLFEVQKFEETTIRTTECALKIEVATMRALLHQIVDAVAEAEERHEREGPRSPYYAEECHVMAAIQQALDDLAS	not soluble
NQIYLPMVDFRPFKVGKSLRELTQAPAGAPEDVYEYVFVYEKNGKRQEFDMDHLPDDSWTYVDRHEKLIKKGYTPPVTDFLLLRGGEDVTSEIVNKKGITLLLLSPDWENASDDKMDNISEMYDYAQEHAWDFYGVSASTSDDISTWRYNTGADYPMLFLDAVTVKTITRGNPSLVILRDGVIRGKVSDANFPGVGQAQAFFDRYIGNELYQPS	not soluble
MGSDKIHHHHHHMTVMNAYQELESQGLIYSKEKSGYFVAEQIALKPLEQYSIVSLNSKIEINSLVFKYLKSIQHESVVPFGSAFPDSQLLAAPKLIQIMGQLARQRQSYDQTASLPPGNLALRKLIAQRYCMQGIQTDPDDIVITSGGLDALNLSLQAVAKPGDYILLQQTVFYGAWQAAERLGLKVITIPEHPQHGFDLEAFEQVIHTYPIKVCWLMLNSHNPIGFTVSDEIKYKIAKLLHEHQIYLIEDDVYEELYYGGQKPLSMKYFDQQNLVLHCSSFSKTLGAGFRVGWVYAGKFSDHIQHLQLMSTISVNALIQNALVEFLSHHHYEKHLRTLRLSLERYKKQFYHYLKQHLPAICEIYYYPSGYFLWVKLPHKLDSMQIYEELIQQDIGVAPSPLFSVLPAQQHYLRINCSFEWNEKIQAALDQVIKTIQQRVEASL	not soluble
SKVTSLTACLVDQSLRLDCRHENTSSSPIQYEFSLTRETKKHVLFGTVGVPEHTYRSRTNFTSKYNMKVLYLSAFTSKDEGTYTCALHHSGHSPPISSQNVTVLRDKLVKC	soluble
MGSDKIHHHHHHMRANRIGYVYSNKRFAGELLEFNTLEGYEYSFTYAASYIASGLPQIGYKLPITHEPYRRNYLPPFFANLMSEGWVRRHQARIARLDQDDKFGLLLGNGAELIGPVSVFTEYRGDNISAAIEVIAVPMKSLKGYQIDFPRCEFNEVAMESLGGVSISGVQPKMFLTYAEGNPKTLTNAVGMGPYIVKPSPNDFPELAENEFMVMQLCKAVGFNVAEHHLVPFSCGQLAYVTARFDLDRETGRRHEFIEDLASALNVAPGNKSSDTLSYEKAIKEAYQLSGGHVQLLKDGFLQVLMAYIVGNNDLHLKNISLSRASDSNRASGYTPIYDMVSVAPYRQYDNSGELSIWLLESEVERGFSTSSYEHYGYYTGHDFITFAEAIGLGERAGKVLMNDLGKKVAKARDKVIANAPGSEQLKQIISERITARLSTLTRPALR	not soluble
MEELQYFPYERLRPNQREFIEIVKEAVKRGENLIVEAPTGFGKTISVLAGVLPYAISLGYKVVYLARTHKQMDRVIEELKKIRERNEVSGIEFRSRRDLCLHSYIQTFVQDAYTSMIVCKTLRKLGKCPFFENIKEKRDRVEEIVRFFLNSPPFPHEVLEYSELLELCPYEITKKIGEKANVIVASYLYMISPPIRQAFLENLGVDYSDLIVIFDEAHNLPDQAISALSDRLSIRSIERAIKEAEEYGEKDIENFLSILLRGLEILYKEKLENYESEEVPIRPEEVFLHVASVLGWSGREIGMMLEDMIEVGDAIREDRIERNLPPRSYVGRVGEFLWNWLALREREDYLHLFTKERGLALELVALDPSVALEFLEEVHSAIFMSGTLSPLEAFRDIIGVKAELKKFPRMIKRENAIVLVARDVSTRGIERSPSLYRRISEYIFEAVRNTPKNVGVFTASYEVLEGILSTNVHIKIEEEIGKKVFIEKRDAPSRENDEMIRAFKEESKGKGAVLFGVMGGRNSEGQDYSGDEMNGVVLVGIPYARPTPRVQAQIRYFEKKFPGKGRYYGYVLPAHRKLTQAAGRVHRSEEEKGSIVILDYRVLWKSVKKDLPDWMVETMIPVTLPHYENKTLEHHHHHH	not soluble
